These results are taken from article PMC5309953, “IRAV (FLJ11286), an Interferon-Stimulated Gene with Antiviral Activity against Dengue Virus, Interacts with MOV10”.

This data set has as its target IRAV (FLJ11286) (UniProt Q9NUL5 1-269). In words: fluorescence polarization; FP: oligos in 100 mM KCl, 20 mM HEPES pH 7.4 (heated to 85 C, slow cooled); protein purified in 200 mM NaCl, 20 mM HEPES pH 7.4; assay temperature not stated. The settings on record: protein: recombinant; tags: N-terminal His-MBP; label: 3'-FAM; single strand. On the technique in general: In fluorescence polarisation assays a small probe gives low polarisation when free and higher when bound to something large.

Chain of IRAV (FLJ11286) (Q9NUL5 1-269): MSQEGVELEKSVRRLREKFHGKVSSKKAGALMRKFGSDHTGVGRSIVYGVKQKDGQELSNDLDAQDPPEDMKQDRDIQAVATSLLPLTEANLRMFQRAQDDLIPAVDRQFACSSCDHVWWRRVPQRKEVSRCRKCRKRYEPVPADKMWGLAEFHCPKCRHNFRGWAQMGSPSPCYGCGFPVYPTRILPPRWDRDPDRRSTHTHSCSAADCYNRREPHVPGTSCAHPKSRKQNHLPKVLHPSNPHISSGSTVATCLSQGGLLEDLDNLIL

Turning to AGTTGTTAGTCTACGTGGAC (ssDNA) [ssDNA 20-mer], the binding result is “binds”.

AGUUGUUAGUCUACGUGGAC (ssRNA) [ssRNA 20-mer]: the binding result is recorded as “binds”.
